Measurements reported in US20260286408A1, “PROCESS FOR MAKING FLAVANONE DERIVATIVES” (priority 2022, published 2026).

Experiment: Biotransformation of flavanones with whole cells of E. coli BL21 (DE3)-AthF3H
Assay type: biochemical
Details: whole cells OD10, 1 g/L substrate, pH 7, 30° C., 2 h, all substrates
Experimental: The gene (GenBank: U33932) encoding the flavanone-3-hydroxylase (F3H) from Arabidopsis thaliana was ordered codon-optimized for E. coli. E. coli BL21 (DE3) was transformed with the resulting construct. For the precultures LB medium containing kanamycin (50 μg/mL) was inoculated with E. coli BL21 (DE3) strains harboring the constructs and incubated at 37° C. and 200 rpm over-night. The preculture was used to inoculate the main culture of 400 mL LB medium containing kanamycin (50 μg/mL), which was incubated at 37° C. until the optical density at 600 nm (OD600) reached approximately 0.8. Expression of AthF3H was induced by 0.1 mM IPTG (isopropyl-D-thiogalactopyranoside) and the cultures were shaken at 20-25° C. for 20 h. The cells were harvested by centrifugation, and then resuspended in 100 mM potassium phosphate buffer (KPi, pH 7) to an OD of 50.
Biotransformations were carried out with whole cells of E. coli BL21 (DE3)-AthF3H at OD10 in a total volume of 1 mL in 100 mM potassium phosphate buffer (KPi, pH 7) containing 10% DMSO, 1 g/L of eriodictyol, hesperetin, homoeriodictyol, pinocembrin, liquiritigenin or 5-deoxyeriodictyol, 10 mM α-ketoglutarate, 10 mM ascorbic acid and 0.25 mM FeSO4 at 30° C. and 1000 rpm for 2 h. […]

B1: AthF3H: flavanone-3-hydroxylase (F3H) from Arabidopsis thaliana (GenBank: U33932), expressed in E. coli BL21 (DE3) (protein, UniProt Q9S818 1-358, looked up)
Naringenin,2-oxoglutarate …: MAPGTLTELAGESKLNSKFVRDEDERPKVAYNVFSDEIPVISLAGIDDVDGKRGEICRQIVEACENWGIFQVVDHGVDTNLVADMTRLARDFFALPPEDKLRFDMSGGKKGGFIVSSHLQGEAVQDWREIVTYFSYPVRNRDYSRWPDKPEGWVKVTEEYSERLMSLACKLLEVLSEAMGLEKESLTNACVDMDQKIVVNYYPKCPQPDLTLGLKRHTDPGTITLLLQDQVGGLQATRDNGKTWITVQPVEGAFVVNLGDHGHFLSNGRFKNADHQAVVNSNSSRLSIATFQNPAPDATVYPLKVREGEKAILEEPITFAEMYKRKMGRDLELARLKKLAKEERDHKEVDKPVDQIFA
  conversion of flavanone substrates by F3H: full conversion of the available (S)-enantiomer
